Measured values published in patent US20220282217A1 (BIONTECH US, published 2022).
One block for each binder: values may come before it.

Legend:
[1] = target: T1, HLA class I molecule B08.01; experiment: pMHC-I dissociation assay with 125I-labeled beta2m light chain at 37 C, scintillation counts; time in hours for half of the complexes to dissociate
T1 construct: Purified MHC class I complex; also called HLA-B08:01
Procedure: (§1) Briefly, synthetic genes encoding biotinylated MHC-I heavy and light chains are expressed in E. coli and purified from inclusion bodies using standard methods. […] These reactions are carried out in streptavidin coated microplates to bind the biotinylated MHC-I heavy chains to the surface and allow measurement of radiolabeled light chain to monitor complex formation. Dissociation is initiated by addition of higher concentrations of unlabeled light-chain and incubation at 37° C. Stability is defined as the length of time in hours it takes for half of the complexes to dissociate, as measured by scintillation counts.

HLA-A24.02 [2] = target: T2, HLA-A24.02 (human); experiment: competition vs radiolabeled reference peptide on purified MHC I, gel filtration
T2 construct: As for HLA-A02.01
Procedure: (§2) Peptides were incubated at varying concentrations with these complexes for 2 days, and the amount of remaining radiolabeled peptide bound to […] was measured using size exclusion gel-filtration.

HLA-A02.01 [3] = target: HLA-A02.01 (human); experiment: pMHC-I complex dissociation at 37 C, 125I-b2m, half-life
Procedure: as §1

HLA-A24.02 [4] = target: T2, HLA-A24.02; experiment: as above
Procedure: as §1

HLA-A02.01 [5] = target: HLA-A02.01 (human); experiment: competition vs radiolabeled reference peptide on purified MHC I, gel filtration
Procedure: as §2

[6] = target: T1, HLA class I molecule B08.01; experiment: pMHC-I dissociation half-life, 125I-b2m
Method in brief: (§3)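 Biotinylated MHC-I heavy chain made in E. coli, captured on streptavidin plates and complexed with peptide and radiolabelled light chain. Dissociation started with excess unlabelled light chain at 37 °C. Stability is the half-life in hours from scintillation counts.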

[7] = target: T3, HLA class I molecule B07.02; experiment: competition with radiolabeled reference peptide on purified MHC I
T3 construct: Purified MHC class I complex; also called HLA-B07:02
Procedure: as §2

[8] = target: T4, HLA class I molecule A24.02; experiment: as above
T4 construct: Purified MHC class I complex; also called HLA-A24:02
Procedure: as §2

[9] = target: T5, HLA class I molecule A03.01; experiment: as above
T5 construct: Purified MHC class I complex; also called HLA-A03:01
Procedure: as §2

[10] = target: T6, HLA class I molecule A01.01; experiment: as above
T6 construct: Purified MHC class I complex; also called HLA-A01:01
Procedure: as §2

[11] = target: T7, HLA class I molecule A02.01; experiment: pMHC-I dissociation half-life, 125I-b2m
T7 construct: Purified MHC class I complex; also called HLA-A02:01
Method in brief: as §3

[12] = target: T7, HLA class I molecule A02.01; experiment: competition with radiolabeled reference peptide on purified MHC I
Procedure: as §2

HLA-B07.02 = target: T8, HLA-B07.02 (human); experiment: competition with radiolabeled reference peptide, purified MHC I
T8 construct: Purified class I MHC
Procedure: as §2

IC50 (HLA-A24.02 [2]): 141 nM
Binder: RRMPPCLANF (also called C15ORF40(+1))

IC50 (HLA-A24.02 [2]): 8.7 nM
Binder: RMPPCLANF (also called C15ORF40(+1))

Stability (T1/2 (h)) (HLA-A02.01 [3]): 0 h
Stability (T1/2 (h)) (HLA-A24.02 [4]): 2.6 h
IC50 (HLA-A02.01 [5]): 2060 nM
IC50 (HLA-A24.02 [2]): 2150 nM
Binder: YLVIQLQDKF (also called EGFR: SEPT14)

Stability (T1/2 (h)) (HLA-A02.01 [3]): 0.6 h
Stability (T1/2 (h)) (HLA-A24.02 [4]): 0.8 h
IC50 (HLA-A24.02 [2]): 658 nM
Binder: VVPLYGLLL (also called ESR1, D538G)

Stability (T1/2 (h)) (HLA-A02.01 [3]): 0 h
Stability (T1/2 (h)) (HLA-A24.02 [4]): 0.4 h
IC50 (HLA-A02.01 [5]): 1200 nM
IC50 (HLA-A24.02 [2]): 3890 nM
Binder: VVPLCDLLL (also called ESR1, Y537C)

IC50 [7]: 2530 nM
Binder: RPLQTHVLPE (also called GATA3 . . ; CSNH)

IC50 [8]: 332 nM
Binder: MFLKAESKI (also called GATA3 . . ; CSNH)

IC50 [9]: 16 nM
Binder: VLWTTPPLQH (also called GATA3 . . ; CSNH)

IC50 [7]: 2110 nM
Binder: VPAVPFDLHF (also called GATA3 . . ; CSNH)

IC50 [7]: 109 nM
Binder: QPVLWTTPPL (also called GATA3 . . ; CSNH)

IC50 [7]: 32.8 nM
Binder: PPRPPRAAC (also called LMAN1(+1))

Stability (T1/2 (h)) [11]: 0.5 h
Stability (T1/2 (h)) [6]: 0 h
IC50 [12]: 7770 nM
Binder: QVLHECNSL (also called MEK, P124L)

IC50 [8]: 0.4 nM
Binder: LYITAFFLLD (also called NDUFC2 (-KCDT14)(-1))

IC50 [10]: 4.4 nM
Binder: TTNAFSGEY (also called RAC1, P29S)

IC50 [10]: 10.5 nM
Binder: YTTNAFSGEY (also called RAC1, P29S)

IC50 [10]: 15500 nM
Binder: TGSNEVTTRY (also called RBM27(+1))

IC50 (HLA-B07.02): 826 nM
Binder: RVQNQGHLL (also called UBR5(-1))

IC50 (HLA-A24.02 [2]): 28.2 nM
Binder: RLSSVLQRF (also called β2M, . . ; SQIS)

Further lines, the binder ahead of its results:

Binder: ESKIMFATL (also called GATA3 . . ; CSNH)
Observed MHC Stability [1]: 1.3 h

Binder: FLKAESKIM (also called GATA3 . . ; CSNH)
Observed MHC Stability [1]: 1.2 h

Binder: IMKPKRDGYM (also called GATA3 . . ; CSNH)
Observed MHC Stability [1]: 0.4 h

Binder: FLKAESKIMF (also called GATA3 . . ; CSNH)
Observed MHC Stability [1]: 0 h

Binder: LHFCRSSIM (also called GATA3 . . ; CSNH)
Observed MHC Stability [1]: 0 h

Binder: EYMANGSLL (also called BTK, C481S)
IC50 (HLA-A24.02 [2]): 5 nM

Binder: KGPELFPLI (also called C11orf95: RELA)
Stability (T1/2 (h)) (HLA-A02.01 [3]): 0.3 h
Stability (T1/2 (h)) (HLA-A24.02 [4]): 1.7 h
IC50 (HLA-A02.01 [5]): 101 nM
IC50 (HLA-A24.02 [2]): 14 nM

Binder: GFKLFSCLSF (also called C15ORF40(+1))
IC50 (HLA-A24.02 [2]): 643 nM

Binder: FFCYILNTMF (also called CNOT1(-1))
IC50 (HLA-A24.02 [2]): 73.4 nM

Binder: LYGLLLEML (also called ESR1, D538G)
IC50 (HLA-A24.02 [2]): 0.8 nM

Binder: GVYTFLPSTL (also called ESR1, S463P)
Stability (T1/2 (h)) (HLA-A02.01 [3]): 0.4 h
Stability (T1/2 (h)) (HLA-A24.02 [4]): 0 h
IC50 (HLA-A02.01 [5]): 1200 nM
IC50 (HLA-A24.02 [2]): 7700 nM

Binder: KLSDSRTAL (also called FRG1B, I1OT)
Stability (T1/2 (h)) [6]: 0 h

Binder: EPHLALQPL (also called GATA3 . . ; CSNH)
IC50 [7]: 17 nM

Binder: HVLPEPHLAL (also called GATA3 . . ; CSNH)
IC50 [7]: 1330 nM

Binder: ILDTAGHEEY (also called KRAS, Q61H)
IC50 [10]: 64.2 nM

Binder: ILDTAGKEEY (also called NRAS, Q61K)
IC50 [10]: 14.3 nM

Binder: ILDTAGLEEY (also called KRAS, Q61L)
IC50 [10]: 8.6 nM

Binder: ILDTAGREEY (also called NRAS, Q61R)
IC50 [10]: 7 nM

Binder: GPPRPPRAAC (also called LMAN1(+1))
IC50 [7]: 48.6 nM

Binder: LQVLHECNSL (also called MEK, P124L)
Stability (T1/2 (h)) [11]: 0 h
Stability (T1/2 (h)) [6]: 0 h
IC50 [12]: 4720 nM

Binder: LLALWECSL (also called MSH3(-1))
Stability (T1/2 (h)) [11]: 4 h
Stability (T1/2 (h)) [6]: 0 h

Binder: LPQARLCLI (also called MSH3(-1))
IC50 [7]: 72.6 nM

Binder: LYITAFFFCW (also called NDUFC2 (-KCDT14)(+1))
IC50 [8]: 45.3 nM

Binder: FFFCWILSCK (also called NDUFC2 (-KCDT14)(+1))
IC50 [9]: 597 nM

Binder: FFCWILSCK (also called NDUFC2 (-KCDT14)(+1))
IC50 [9]: 185 nM

Binder: LLYITAFFL (also called NDUFC2 (-KCDT14)(-1))
Stability (T1/2 (h)) [11]: 17 h
Stability (T1/2 (h)) [6]: 0 h
IC50 [12]: 713 nM

Binder: LYITAFFLL (also called NDUFC2 (-KCDT14)(-1))
IC50 [8]: 0.1 nM

Binder: LLYITAFFLL (also called NDUFC2 (-KCDT14)(-1))
IC50 [12]: 323 nM
IC50 [8]: 60.1 nM

Binder: AISTRDPLSK (also called PIK3CA, E542K)
IC50 [9]: 57.5 nM

Binder: GSNEVTTRY (also called RBM27(+1))
IC50 [10]: 606 nM

Binder: KSRQNHLQL (also called SMAP1(-1))
IC50 (HLA-B07.02): 78 nM

Binder: ALKKLRSPL (also called SMAP1(-1))
IC50 (HLA-B07.02): 223 nM

Binder: KFPELLCVW (also called β2M, . . ; SIRH)
IC50 (HLA-A24.02 [2]): 13.7 nM
